In a protein production outcome set (Wang et al. 2014):

Assay: label from the status in PepcDB records

Row | Sequence | protein production
1 | MSPARARLTAPIVLLMSVATGLAVASNYYAQPLLHTIGAEFALTTATAGAIVTVAQLSYAVGLILLVPLGDLYERRTLIALMTALSAVGLLLSAFSPGIGWLMLGTAVTGLLSVVAQVLVPFAATLAEPHERGKVVGAVMSGLLLGILLARTIAGALADLGSWRTVYWVAAILMLLMSMALWRVLPRSVNPTRLSYPRLLASIVQLYAQEPLLRARSVLGALLFAAFSMLWTPLTFLLSGPNYGYSNTTIGLFGLAGAIGAYGANRFGRLNDRGQGNRSTRQGLLLLASWPLLAWGAHHVAPLLAGVLALDLAIQAVHVTNQSAIYRLRPEARSRLTAGYMTSYFLGGAAGSLLSAWIYAHAGWLGVTAAGALTSLAALLYGCLARSARIPETTPAPAIA | failed
2 | MSPLALLFLTLFNSVLGLSILFPILGPLGRALGLTEVQVGLFSTGYALMQFLLSPYWGRRSERGRKPVLLVGILGFAASFLLFGVFALLGERGLVPPGLLFFLLLLARLLGGAFSSATLPTAQAYVADVTGRENRTAGMALLGAAFGLAVILGPALGAGLAALFGLLAPVFFSAGIALLNALFVYLVLPESRPRGQEAGARLSPFDPRVFPLLLLGLALNLSSVALEQTIAFYFQDRLLLGGVETAQKVGLALVLYGVVAVFVQGVLVRKTGWPPRVLLSLGLPLGILGFVLLVYAKTFWALALGLALQGAGQGLALPGVTAALSLAVGEGEQGLVAGLNSSAQALGRMLGPIVGTGLYRLAPEGPYVLGASLLLLALLFLPALFRRARL | failed
3 | MSPMAPVARAKRKFILLLIKPSHYDDDGYVLRWWRGIIPSNSLATLYGIAADVAARQVLGADVEFEIEAMDEFNTRIDIPALLDRFARNGNFGLVGLVGVQSNQYPRALDIARPFRASGVPVVMGGFHVSGCLAMLDGKAIGLDDCRDMGVAMFAGEAEGGRFDGVLQDAAAGQLQPVYNFLNDLPGIEGVPAPYLPLATVKRTLGLSTSVDAGRGCPYQCSFCTIINVQGRKSRYRTPDDIEAMVRRNWAQGISKYFITDDNFARNKDWEAILDRLIQIRETEDIPLGFMIQVDTLCHKIPRFIEKAKRAGVTRVFIGLENINPANLLTANKRQNKITEYRAMLLAWKDHGIITLAGYILGFPADTPASIRADIDIIKRELPIDVMEFFCLTPLPGSEDHQTLWRAGVAMDPDLNNYDVEHVCTAHPLMSRPEWEAIYREAWSRYYTPDHIETLLRRAAATGIKISSLVKLLAIFSTAIRVENVHPLQCGLFRQRHPSERRPGLAAPNALLFWPRFALDSVRKTGVILAAFAKVAAIGVRVARDPQRLAYTDQALTPVSDDDADSLDLFTQSASAKQAVAHQKKVFDLTHGTP | failed
4 | MSPPGQHYAQADAPQRPVLVQESSYLQLSSEAAEFVTQCQICGKPCQLADEPLWTTLATTIPSTIGAMAVSSAPHLPSGSFEWLTAGRVDPGSRVVVLCPTVAHCRAVASHGADVLAVHRDPDTAEKLNRIPGVMAVCGSPESLPLNSSSFDAVLVHQGFHELAPGLALPEIARVLRPGSVLGVSWLVRDDTVPWVKRLAALLRTVDENAMSGDYGTESVHELISSKYFPEDEHTTKRLWVPVNRDSLVAMAAARPAVRALDSDARSNVLTKVAALADDSAGTSGLRLPYQLECWRAWVDHDELTTPIRPHDDGLTITL | failed
5 | MSPQSPSNSSISTDDQAGKNPAAAFGPNEWLVDEIYQQYLQDPNSVDRAWWDFFADYKPGAAAASAPAGTAAAGAAETTTPAPAAPTAAAPAAPAAPAPAAPAPAPAAPAPAAAPAVPKPAAAAPAPAAAKPAAAAPAQPKAAAATEAAEGPTFVPLRGPAAAVAKNMNASIEVPTATSVRAVPVKLLFDNRIVINNHLKRARGGKISFTHLIGYAMVQAIKAMPSMNWHYAEKDGKPTLVKPAHVNFGLAIDLVKPNGDRQLVVAGIKKAETLNFFEFWQAYEDIVRRARDGKLTMDDFTGVTVSLTNPGGLGTVHSVPRLMPGQSVIMGVGSMDYPAEFQGTSQDTLNKLGISKVMTLTSTYDHRVIQGAASGEFLRIVANFLLGEGGFYDEIFEALRIPYEPVRWLKDIDASHDDDVTKAARVFELIHSYRVRGHVMADTDPLEYRQRKHPDLDITEHGLTLWDLEREFAVGGFAGKSLMKLRDILGVLRDSYCRTTGIEFMHIQDPKQRKWIQDRIERSHSKPEREEQLRILRRLNAAEAFETFLQTKYVGQKRFSLEGGESVIPLLDAVIDSAAESRLDEVVIGMAHRGRLNVLANIVGKSYAQIFREFEGNLDPKSMHGSGDVKYHLGASGTFTGLDGEQIKVSLAANPSHLETVDPIIEGIARAKQDIINKGGTDFTVLPVALHGDAAFAGQGVVAETLNMSQLRGYRTGGTVHIVINNQVGFTAAPESSRSSMYATDVARMIEAPIFHVNGDDPEAVVRVARLAFEFRQAFNKDVVIDLICYRRRGHNESDNPAFTQPLMYDLIDKKRSVRKLYTESLIGRGDITLEEAEQALQDFQGQLEKVFTEVREAISTPGEAPAPEPQPEFPVAVPTAVSQEVVKRIAESQVNIPDHVTVHPRLLPQLQRRAAMIEDDTIDWGMGETLAIGSLLLEGTPVRLSGQDSRRGTFGQRHAVLIDRVTGEDFTPLQYLADDQARLNVYDSLLSEYAVMGFEYGYSLARPDALVMWEAQFGDFVNGAQTVVDEYISAAEQKWGQTSGVTLLLPHGYEGQGPDHSSARIERFLQLCAQNNMTVAQPTLPSNYFHLLRWQVHNPHHKPLVVFTPKSMLRLKAAASKTEEFTTGAFRPVIGDDTVDAAAVRKVVFCAGKLYYDLEAERKKRGATDAAAAETAIIRLERLYPLPGAELQAEIAKYPNAEKYLWAQEEPANQGAWPFIALNLIDHLDLAVGADVPHGERLRRISRPHSSSPAVGSAKRHQAEQEQLVREVFEA | failed
6 | MSPSPLISHRAASADLAGMVRQARQRILLQGNVPGFDVARQIELLHGLAESELGRFLLLYRGLNAEWTHRLVTHQPGSGALAPLERVFYERLPAVLATRERHGHFRRALQRHLRPGCVVASVPCGWMSELLALDYSACPGVQLVGIDYDPEALDGATRLAAGHALAGQITLHRQDAWKLDTREGYDLLTSNGLNIYEPDDARVTELYRRFWQALKPGGALVTSFLTPPPALSPDSPWDMQAIDPHDLQLQQLVFTRLIQPRWNALRTHAQTRAQLEEAGFTDLRFEDDRARLFPTVIARKPA | not failed
7 | MSPTLSILIPVYKRDCRRLLEELYKQAEELSVGYEIILGDDCSGEPYTSQYIAYEQEGLCRLVSAEENMGAGRLRNRLAEEAQGEQLLILDSDTLPASPDFIERYLRHASGTTVVCGGFVYPPKSTNPLRQRYGAEVESRSAEERARKPHSGFISMAFMIPRKQMLATGFPPNMGMGYEDILFGERLRQAGIPILHIDNPVEHYHCDTAEGFLATTRSYLDNLYCHREELAELVSLLRAYNLLKRLHLEHHHHHH | failed
8 | MSPVINHPVLGPAAPSLGWVPAPRYWLRRQRVLDHMRTLERGRLLEIGCGGGALLADLSRLGFDCRALETSPAARVVARAMNADTEGDKIVETAPADWRGSFDVVAAFEVLEHIDDDVGALRDWRDWLVDGGHILISVPADPRKFNAADEWAGHFRRYDKEDLHKVLKQAGFSVVSSETYGYPLANFLEYFRASAHQLMRKQWAHRSRDDATAQSGVNRSLDSKVWPLYSSALGVRALRLADSLQKRFRDNGRGNGLLVIGRRI | failed
9 | MSQEIAVIGSPAFTTGFQLAGVRKVENVADDEKDDDLDAAVEAVLADEDVGIAVMHDDDLAHLSRGVRQSVEASVEPTFVTIGGGASGASGLRDQIKRAIGIDLMDDDDDASAADTEAGDLEHHHHHH | not failed
10 | MSQFFYIHPDNPQQRLINQAVEIVRKGGVIVYPTDSGYALGCKIEDKNAMERICRIRQLPDGHNFTLMCRDLSELSTYSFVDNVAFRLMKNNTPGNYTFILKGTKEVPRRLLQEKRKTIGMRVPSNPIAQALLEALGEPMLSTSLMLPGSEFTESDPEEIKDRLEKQVDLIIHGGYLGQKPTTVIDLTDDTPVVVREGVGDVKPFL | not failed
11 | MSQNVISQPVEAQQSFARAVTESLPGLLLVCAVALVASFVAPKLEAYPLFKTYLSLKDFILAIIFGIIIRNTVGVPAVFQPGLRYSTIMTKTGIVIMGSSYSLAGLVSVGAQALVFIAVFLFGTALVMMWLCRKVGMSTPLAACLAAGMSVCGVSATIAIAPAVKAKNEDMAYSIAVVLMFGLLALIAFPLIGKVFNLTPEQFGAFAGVGIVNSAQVLAAGFGFSQEAGIVAGIYNIGRVVFLPFVVLMLAIMAAAQEAEQGNEVAKINKWQMIRDKFPLFVLGFLAIVCLNTAGVLTKPEVKMAKHFMEWAFLLGFASIGLTTRLSDLRAAGLNGFLFGFGVAGLKAALALAAVLLFMS | failed
12 | MSQSTHQSTDHKRQSQDKNQTHAYAKVWLYFMYYWMIFGIGCYFGQYLPMSWRKPLSLGLLILILATLFIKRARKYGLVISHIYAIIVGLLSYALFTTYLQNLGAEVFYKNIILAIGAFIAFGIIGYFLIKDASSMGKYLFVTLIALIIAGIIGIFINNPIFHTVITIVSLLLFLLYTLYDFNRMKRGQFSPREMGFNLFINLLNIIEDILSLANRFKN | failed
13 | MSQTTTYAGSAGTAKTEIETSTIRAISWRLIPFLVLAYFFSYLDRVNLGFAALTMNAELKFTPLIFSWGAGIFFIGYFIFEVPSNLALEKFGASRWIARIMVTWGIISALMAMVSGVTSFYVLRFLLGVAEAGFFPGIILYLTYWYPAEYRARFLAAFAIAVPVSTVIGAPVSGLLLGLDGVMGLKGWQWLFIIEGIPSVLLGIVTWFYLTDRPEKADWLSAEQKAWLKAKLDSEIAAKQAVKHLSLGEALSSPKVIALSLIYFGFVGALYGMQFWLPQIVKAFGLTNAQTGFVTAIPYLFGTVAMILWARHSDATRERVMHVGAPLLLTAVALGVSSYLTDPTLTMVVLTVAAIGVFCCFGVFWTLPTAWLSGTAAAGGIALINSIGNLAGFGGPYLIGWVKEATGQTSTGLLVLAVLPLLAGILVFVGGHDSKHEFAGQGR | failed
14 | MSRAKAAPVAGPEVAANRAGRQARIVAILSSAQVRSQNELAALLAAEGIEVTQATLSRDLEELGAVKLRGADGGTGIYVVPEDGSPVRGVSGGTDRMARLLGELLVSTDDSGNLAVLRTPPGAAHYLASAIDRAALPQVVGTIAGDDTILVVAREPTTGAQLAGMFENLR | not failed
15 | MSRDEVLTRMRRFGPLAVVAVLCAAAFASGLVEHISLEELRLRGTQLQAFAHENPLLCAAIYLAVYVGTVAISLPGALILSLTGGFLFGPIGGGLAAVTGATGGSTVTFLVFRTAFGEALPFKSSAFIARIAEGLKGDAFNYLLTLRLIPAFPLLAVNVAAGVMNVRVRTFLLASVLGMIPSSFVYAGIGAGLGHVFAKGGPVTVESLLSPRIYLPIIGMGVLAFLPPLWRHWRNGRDVASLDEK | failed
16 | MSRDPTYTINEHDLSFADGRFYVTFKADKSSETVRLNSSCLGNTIIKKLQVEDDNTMHDFVKPKVTTQQAFGLAQQVKELDLQLKDPKSDLWGKIKFNNKAMLVEYANKEMSSAIAQSAEQILLQVKSIDDERYSKFEQTLNGIKQTVKSESVESARTQLASMFDSRISGLDGKYSRLSQTIDSLSSRLDDGVGNYSTLSQKVSGIDLRVSNAANDVSRLSQTAQGLQSQITNANQNYSSLSQTVQGLQTTVRDNQSNATSRINQLSDLISTKVSKGDVETTIAQSYDKIAFAIRDKLPASKMSGSEIISAINLDRSGVKITGKNITLDGNSYISNAVIKDAHIANMDAGKINTGYLNANRIATEAITGEKIKMDYAFFNKLTANEGYFRTLFAKDIFATSVQSVTLSASKITGGVLAATNGASQWDLNNANMTFNRDATINFNSKNNALVRKDGTHTAFVHFSNATPKGYRGSALYASIGITSSGDGIDSASSGRFAGLRSFRYATGYNHTAAVDQTELYGDNVLIADDFNINRGFKFRPDKMEKVLDMNDLYAAVVALGRCWGHLANVGWNTAHSNFTSAVSRELNNYITKI | failed
17 | MSRFHWLWPWRSSTSLRVTTVLRLGADQPAIVAAARASQACTRSPRTTRDAMAMHTNGSVFAGWDGSVIQAQQLQHQLAQRVLLHDEVSATPQLLAGFDVGFEDDGQTTRAAAVLLDAHTLLPLETHVARAPTSMPYVPGLLSFRELPALLQALARLSRTPDLVFIDGQGIAHPRRLGIAAHFGVVTGLPCIGIAKQRLAGSFAEPGPERGDHTPILLGGAQIGWALRSKPRCNPLIVSPGHCVSMQGALGWTLRTLRSYRLPEPTRLADRLASRRGKMPALAADTPLLF | failed
